Test results as given in US20130244938A1 (Stanford University, published 2013).
Where no end group is shown, it is not given here.

B1: RLN2 T^A16A (ligand, not shown: small tags and cut ends)
chain 1: SWMEEVIKLCGRELVRAQIAICGMSTWSHHHHHH
chain 2: QLYSALANKCCHVGCAKRSLARFC
modifications: not fully specified; ends and bridges not checked; also: N-terminal Myc epitope tag
notes: Construct with the 8-amino acid linker, processed to the mature two-chain form
B2: WT RLN2 (recombinant wild type human RLN2, Myc- and His6-tagged) (ligand, not shown: small tags and cut ends)
chain 1: B1 chain 1
chain 2: QLYSALANKCCHVGCTKRSLARFC
notes: also called wild type RLN2; wild type peptide
B3: RLN2 R^A18A (ligand, not shown: small tags and cut ends)
chain 1: B1 chain 1
chain 2: QLYSALANKCCHVGCTKASLARFC
B4: RLN2 R^A22A (ligand, not shown: small tags and cut ends)
chain 1: B1 chain 1
chain 2: QLYSALANKCCHVGCTKRSLAAFC
modifications: not fully specified; ends and bridges not checked; also: N-terminal Myc epitope tag
notes: as for B1
B5: RLN2^A19-20 (ligand, not shown: small tags and cut ends)
chain 1: B1 chain 1
chain 2: QLYSALANKCCHVGCTKRAAARFC
notes: It is read here as both residues changed to alanine
B6: Nontagged human RLN2 peptide (ligand)
chain 1: SWMEEVIKLCGRELVRAQIAICGMSTWS
chain 2: QLYSALANKCCHVGCTKRSLARFC
modifications: not fully specified (bridges); ends and bridges not checked
notes: Used as a standard; also called Nontagged RLN2; nontagged wild type RLN2 peptide
B7: RLN2^A22-23 (ligand, not shown: small tags and cut ends)
chain 1: B1 chain 1
chain 2: QLYSALANKCCHVGCTKRSLAAAC
notes: as for B5
B8: WT RLN3 (recombinant human relaxin 3, Myc- and His6-tagged) (ligand, not shown: small tags and cut ends)
chain 1: RAAPYGVRLCGREFIRAVIFTCGGSRWHHHHHH
chain 2: DVLAGLSSSCCKWGCSKSEISSLC
modifications: not fully specified; ends and bridges not checked; also: N-terminal Myc epitope tag
B9: WT INSL3 (recombinant human insulin-like 3, Myc- and His6-tagged) (ligand, not shown: small tags and cut ends)
chain 1: PTPEMREKLCGHHFVRALVRVCGGPRWSTEAHHHHHH
chain 2: AAATNPARYCCLSGCTQQDLLTLCPY

Molecular target: T1, LGR8 (leucine-rich repeat-containing GPCR 8) (human, UniProt Q8WXD0 1-754)
Experiment: cell-based or functional assay

T1 sequence (Q8WXD0 whole entry): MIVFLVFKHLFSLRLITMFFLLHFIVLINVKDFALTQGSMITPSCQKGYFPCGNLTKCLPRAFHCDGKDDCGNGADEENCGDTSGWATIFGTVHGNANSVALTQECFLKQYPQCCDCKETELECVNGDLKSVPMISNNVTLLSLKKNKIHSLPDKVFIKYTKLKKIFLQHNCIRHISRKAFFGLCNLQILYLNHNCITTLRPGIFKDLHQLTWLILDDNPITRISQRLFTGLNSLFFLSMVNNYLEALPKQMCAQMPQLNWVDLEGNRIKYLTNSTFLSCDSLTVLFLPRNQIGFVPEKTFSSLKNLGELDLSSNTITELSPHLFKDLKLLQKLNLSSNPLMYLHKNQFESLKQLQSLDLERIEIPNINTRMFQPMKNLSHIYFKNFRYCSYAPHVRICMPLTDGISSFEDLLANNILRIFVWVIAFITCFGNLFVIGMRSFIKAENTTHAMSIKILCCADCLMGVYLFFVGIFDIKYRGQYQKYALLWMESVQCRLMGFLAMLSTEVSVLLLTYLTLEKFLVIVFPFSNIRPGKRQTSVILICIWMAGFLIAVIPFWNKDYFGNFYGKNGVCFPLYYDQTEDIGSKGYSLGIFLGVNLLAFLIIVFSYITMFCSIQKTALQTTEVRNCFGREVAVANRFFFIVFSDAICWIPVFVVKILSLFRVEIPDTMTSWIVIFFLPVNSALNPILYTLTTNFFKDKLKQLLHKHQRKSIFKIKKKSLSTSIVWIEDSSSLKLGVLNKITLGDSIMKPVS

| Molecule | maximum LGR8-activation activity (cAMP production), against wild type RLN2 |
| --- | --- |
| B1 | 2 fold |

Molecular target: T1, LGR8 (leucine-rich repeat-containing …)
Experiment: cell-based or functional assay
Remark: another data set of the same source

| Molecule | pEC50, stimulation of cAMP production in LGR8-expressing HEK293T cells |
| --- | --- |
| B2 | 7.41 |
| B3 | 7.56 |
| B4 | 7.51 |
| B1 | 8.04 |
| B5 | 8.41 |

Molecular target: T2, LGR7 (leucine-rich repeat-containing GPCR 7) (human, UniProt Q9HBX9 1-757)
T2 sequence (looked up): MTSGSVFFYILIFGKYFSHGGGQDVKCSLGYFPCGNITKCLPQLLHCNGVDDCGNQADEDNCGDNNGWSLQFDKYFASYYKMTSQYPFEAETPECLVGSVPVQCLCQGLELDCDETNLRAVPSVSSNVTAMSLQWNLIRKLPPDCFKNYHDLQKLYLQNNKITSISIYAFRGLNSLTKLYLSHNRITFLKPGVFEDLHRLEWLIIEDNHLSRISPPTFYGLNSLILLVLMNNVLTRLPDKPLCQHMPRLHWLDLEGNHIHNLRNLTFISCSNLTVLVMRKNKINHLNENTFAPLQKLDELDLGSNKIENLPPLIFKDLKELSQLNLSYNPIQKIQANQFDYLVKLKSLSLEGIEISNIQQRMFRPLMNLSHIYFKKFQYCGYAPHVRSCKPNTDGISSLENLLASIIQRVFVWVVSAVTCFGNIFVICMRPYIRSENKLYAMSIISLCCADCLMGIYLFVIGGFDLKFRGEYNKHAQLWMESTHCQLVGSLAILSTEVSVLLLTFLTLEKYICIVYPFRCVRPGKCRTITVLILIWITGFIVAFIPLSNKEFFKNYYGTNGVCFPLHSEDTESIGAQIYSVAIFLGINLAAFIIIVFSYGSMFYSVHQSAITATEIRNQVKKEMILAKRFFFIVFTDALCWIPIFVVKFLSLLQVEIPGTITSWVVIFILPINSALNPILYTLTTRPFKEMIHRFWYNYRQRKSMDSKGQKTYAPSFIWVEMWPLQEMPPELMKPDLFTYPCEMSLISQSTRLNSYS
Experiment: cell-based or functional assay

| Molecule | pEC50, stimulation of cAMP production in LGR7-expressing HEK293T cells |
| --- | --- |
| B6 | 6.53 |
| B2 | 9.3 |
| B3 | 9.67 |
| B4 | 10 |
| B1 | 9.75 |
| B5 | 8.56 |
| B7 | 8.87 |

Molecular target: T3, LGR7 (leucine-rich repeat-containing GPCR 7) (human) (UniProt Q9HBX9)
T3 sequence (looked up): T2 sequence (looked up)
Experiment: cell-based or functional assay

| Molecule | pEC50, stimulation of cAMP production in LGR7-expressing HEK293T cells |
| --- | --- |
| WT RLN2 (His1) (ligand) | 8.66 |
| WT RLN2 (His2) (ligand) | 8.77 |
| B8 | 7.73 |

Molecular target: LGR8 (leucine-rich repeat-containing GPCR 8) (human) (UniProt Q8WXD0)
Experiment: cell-based or functional assay

Chain of LGR8 (leucine-rich repeat-containing GPCR 8) (human) (Q8WXD0 whole entry): as the sequence (Q8WXD0 whole entry) above

| Molecule | pEC50, stimulation of cAMP production in LGR8-expressing HEK293T cells |
| --- | --- |
| B9 | 9.03 |

Molecular target: T1, LGR8 (leucine-rich repeat-containing …)
Experiment: competition with 125I-RLN2 tracer on LGR8-expressing HEK293T cells
Procedure: (§1) To determine the binding characteristics of wild type and mutant peptides, HEK293T cells expressing LGR7 or LGR8 were grown to 90% confluence, collected by centrifugation at 3000×g for 2 min, and washed two times in 2 ml of ice-cold binding buffer. Cells were resuspended in ice-cold binding buffer, and aliquots of cell suspension were incubated with increasing doses of purified recombinant peptides in the presence of 0.025 pmol of ¹²⁵I-labeled RLN2 tracer (Phoenix Pharmaceuticals, Burlingame, Calif.) at room temperature for 2 h. After washing three times in an ice-cold binding buffer, radioactivity bound to the cells was measured using a y-counter (EG&G Wallace, Gaithersburg, Md.). Total binding was determined in the absence, and nonspecific binding in the presence, of 25 nmol of unlabeled RLN2. In regular assays, total binding was ˜30,000 cpm, and nonspecific binding amounted to less than 20% of the total binding. Data points were collected in triplicate, and similar results were obtained in at least two independent assays.

| Molecule | pIC50 |
| --- | --- |
| B2 | 7.9 |
| B3 | 7.46 |
| B4 | 6.8 |
| B1 | 7.74 |
| B5 | 7.51 |

Molecular target: T2, LGR7 (leucine-rich repeat-containing …)
Experiment: competition with 125I-RLN2 tracer on LGR7-expressing HEK293T cells
Procedure: as §1

| Molecule | pIC50 |
| --- | --- |
| B6 | 8.78 |
| B2 | 8.72 |
| B3 | 8.42 |
| B4 | 8.42 |
| B1 | 8.4 |
| B5 | 8.21 |
| B7 | 7.5 |

Molecular target: T1, LGR8 (leucine-rich repeat-containing …)
Experiment: competition with 125I-RLN2 on LGR8-expressing HEK293T cells (Table 2 cell: ND, pIC50 not measurable)
Procedure: as §1

| Molecule | binding result |
| --- | --- |
| B7 | no binding |
